Laboratory results reported in the supplement of paper PMC10065799, “High-throughput profiling of sequence recognition by tyrosine kinases and SH2 domains using bacterial peptide display” (eLife, 2023).

How the values were obtained:
[1] = biological target: Fes (UniProt P07332); experiment: phosphorylation enrichment, bacterial display (enrichment ratio); higher = better substrate or ligand; peptides without Tyr show the background
[2] = biological target: MERTK (UniProt Q12866); experiment: as above
[3] = tested on: c-Abl (mouse); experiment: as above
[4] = biological target: FGFR3 (UniProt P22607); experiment: as above
[5] = biological target: EPHB2 (UniProt P29323); experiment: as above
[6] = biological target: EPHB1 (UniProt P54762); experiment: as above
[7] = biological target: Fyn (UniProt P06241); experiment: as above
[8] = biological target: FGFR1 (UniProt P11362); experiment: as above
[9] = biological target: Hck (UniProt P08631); experiment: as above
[10] = biological target: Jak2 (UniProt O60674); experiment: as above
[11] = tested on: Fer (mouse); experiment: as above
[12] = tested on: AncSZ; experiment: as above
[13] = tested on: c-Src; experiment: as above
[14] = biological target: c-Src SH2; experiment: SH2 binding enrichment of the phosphorylated peptide, bacterial display (enrichment ratio); higher = better substrate or ligand; peptides without Tyr show the background
[15] = biological target: SHP2-C SH2; experiment: as above
[16] = biological target: Grb2 SH2 (UniProt P62993); experiment: as above
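For SH2 binding enrichment of the phosphorylated peptide, bacterial display in this document: peptide library displayed on the E. coli surface as eCPX fusions, selected cells deep-sequenced, score is each peptide's frequency after selection divided by its frequency in the input.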
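For phosphorylation enrichment, bacterial display in this document: 11-residue human phosphosite peptides and single-mutation variants displayed on the E. coli surface, counted by deep sequencing, each peptide's frequency after selection divided by its frequency in the unselected input library; frequency after pTyr selection over input frequency; kinase dosed for 20-30% of maximal phosphorylation in three min.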

Fes, sequence (P07332 whole entry, looked up): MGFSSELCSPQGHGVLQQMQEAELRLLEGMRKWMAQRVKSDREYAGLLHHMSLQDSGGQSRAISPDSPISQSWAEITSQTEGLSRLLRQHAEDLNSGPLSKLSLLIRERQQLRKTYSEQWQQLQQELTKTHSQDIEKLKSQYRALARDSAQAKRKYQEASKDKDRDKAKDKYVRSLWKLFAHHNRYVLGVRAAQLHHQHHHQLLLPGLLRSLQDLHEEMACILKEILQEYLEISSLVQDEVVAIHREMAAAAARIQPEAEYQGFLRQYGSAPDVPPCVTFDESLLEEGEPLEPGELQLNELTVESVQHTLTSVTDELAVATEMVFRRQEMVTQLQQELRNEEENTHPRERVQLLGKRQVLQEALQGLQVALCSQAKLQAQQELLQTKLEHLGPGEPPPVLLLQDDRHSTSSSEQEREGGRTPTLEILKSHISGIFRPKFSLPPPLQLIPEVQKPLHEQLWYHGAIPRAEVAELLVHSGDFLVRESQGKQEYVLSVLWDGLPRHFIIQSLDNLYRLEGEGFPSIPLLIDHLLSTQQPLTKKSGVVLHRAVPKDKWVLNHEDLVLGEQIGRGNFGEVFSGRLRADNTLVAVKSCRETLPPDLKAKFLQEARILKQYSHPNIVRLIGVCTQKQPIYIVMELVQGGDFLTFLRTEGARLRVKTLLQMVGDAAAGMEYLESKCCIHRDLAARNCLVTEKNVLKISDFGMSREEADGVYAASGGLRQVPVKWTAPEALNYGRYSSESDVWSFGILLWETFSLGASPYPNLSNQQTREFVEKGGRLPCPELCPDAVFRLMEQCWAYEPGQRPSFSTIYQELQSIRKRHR
Fyn, sequence (P06241 whole entry, looked up): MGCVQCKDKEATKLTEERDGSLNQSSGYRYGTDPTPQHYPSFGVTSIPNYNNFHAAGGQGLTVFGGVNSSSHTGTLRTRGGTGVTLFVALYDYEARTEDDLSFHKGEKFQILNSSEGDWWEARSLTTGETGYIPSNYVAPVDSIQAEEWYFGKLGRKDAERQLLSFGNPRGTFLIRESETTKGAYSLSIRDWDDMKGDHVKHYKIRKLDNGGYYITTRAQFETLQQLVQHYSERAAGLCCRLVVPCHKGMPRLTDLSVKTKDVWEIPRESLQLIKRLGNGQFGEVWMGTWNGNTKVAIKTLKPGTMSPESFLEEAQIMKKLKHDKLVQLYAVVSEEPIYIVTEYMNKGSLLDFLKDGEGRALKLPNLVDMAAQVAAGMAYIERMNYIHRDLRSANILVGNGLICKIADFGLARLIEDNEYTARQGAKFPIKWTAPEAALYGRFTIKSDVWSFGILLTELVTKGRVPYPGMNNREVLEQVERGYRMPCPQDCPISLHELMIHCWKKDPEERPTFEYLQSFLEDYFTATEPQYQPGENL
EPHB2, sequence (P29323 whole entry, looked up): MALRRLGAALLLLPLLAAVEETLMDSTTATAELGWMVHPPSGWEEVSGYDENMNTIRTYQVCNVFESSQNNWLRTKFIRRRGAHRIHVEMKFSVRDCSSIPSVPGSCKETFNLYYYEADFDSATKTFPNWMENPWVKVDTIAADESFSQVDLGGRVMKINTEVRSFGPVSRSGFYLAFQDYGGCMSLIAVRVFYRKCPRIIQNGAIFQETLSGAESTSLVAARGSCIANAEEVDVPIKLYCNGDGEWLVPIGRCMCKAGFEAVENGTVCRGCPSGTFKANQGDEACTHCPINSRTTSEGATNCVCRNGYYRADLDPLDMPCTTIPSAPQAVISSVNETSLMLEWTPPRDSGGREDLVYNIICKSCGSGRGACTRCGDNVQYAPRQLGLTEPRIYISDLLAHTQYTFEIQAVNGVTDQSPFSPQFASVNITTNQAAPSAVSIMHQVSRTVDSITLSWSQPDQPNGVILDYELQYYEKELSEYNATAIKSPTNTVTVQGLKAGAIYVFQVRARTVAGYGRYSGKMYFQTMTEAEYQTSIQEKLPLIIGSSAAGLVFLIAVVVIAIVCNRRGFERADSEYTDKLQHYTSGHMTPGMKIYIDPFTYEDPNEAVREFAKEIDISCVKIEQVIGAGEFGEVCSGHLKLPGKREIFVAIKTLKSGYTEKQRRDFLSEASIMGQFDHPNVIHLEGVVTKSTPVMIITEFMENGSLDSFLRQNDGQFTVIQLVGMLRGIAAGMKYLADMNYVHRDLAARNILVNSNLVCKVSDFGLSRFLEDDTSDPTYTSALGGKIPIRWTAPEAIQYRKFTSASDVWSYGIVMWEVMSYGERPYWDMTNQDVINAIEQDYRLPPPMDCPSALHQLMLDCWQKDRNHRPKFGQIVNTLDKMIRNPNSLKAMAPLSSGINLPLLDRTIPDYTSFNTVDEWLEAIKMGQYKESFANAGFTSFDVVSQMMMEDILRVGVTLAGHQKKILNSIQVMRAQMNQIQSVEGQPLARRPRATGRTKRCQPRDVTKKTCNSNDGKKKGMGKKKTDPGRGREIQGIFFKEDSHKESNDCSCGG
FGFR3, sequence (P22607 whole entry, looked up): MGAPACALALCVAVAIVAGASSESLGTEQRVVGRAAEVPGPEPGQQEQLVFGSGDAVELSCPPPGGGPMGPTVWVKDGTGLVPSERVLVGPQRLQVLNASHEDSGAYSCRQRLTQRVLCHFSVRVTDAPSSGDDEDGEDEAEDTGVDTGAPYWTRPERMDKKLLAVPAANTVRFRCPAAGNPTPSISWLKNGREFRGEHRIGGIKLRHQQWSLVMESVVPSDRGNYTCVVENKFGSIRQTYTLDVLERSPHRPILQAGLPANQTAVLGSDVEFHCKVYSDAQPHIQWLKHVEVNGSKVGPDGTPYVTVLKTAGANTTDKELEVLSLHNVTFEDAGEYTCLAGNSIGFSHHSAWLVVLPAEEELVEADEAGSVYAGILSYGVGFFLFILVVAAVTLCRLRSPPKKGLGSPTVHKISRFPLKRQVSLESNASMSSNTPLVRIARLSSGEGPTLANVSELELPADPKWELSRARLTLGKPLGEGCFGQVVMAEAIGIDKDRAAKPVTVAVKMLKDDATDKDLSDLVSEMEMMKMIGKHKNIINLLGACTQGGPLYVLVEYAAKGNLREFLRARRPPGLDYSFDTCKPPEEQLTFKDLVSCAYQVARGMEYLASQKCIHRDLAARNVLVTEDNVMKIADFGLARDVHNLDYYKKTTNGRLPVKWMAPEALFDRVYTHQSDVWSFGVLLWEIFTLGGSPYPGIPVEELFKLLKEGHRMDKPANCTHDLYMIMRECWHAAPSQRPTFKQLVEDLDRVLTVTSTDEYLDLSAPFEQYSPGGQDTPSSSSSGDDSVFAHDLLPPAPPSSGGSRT
FGFR1, sequence (P11362 whole entry, looked up): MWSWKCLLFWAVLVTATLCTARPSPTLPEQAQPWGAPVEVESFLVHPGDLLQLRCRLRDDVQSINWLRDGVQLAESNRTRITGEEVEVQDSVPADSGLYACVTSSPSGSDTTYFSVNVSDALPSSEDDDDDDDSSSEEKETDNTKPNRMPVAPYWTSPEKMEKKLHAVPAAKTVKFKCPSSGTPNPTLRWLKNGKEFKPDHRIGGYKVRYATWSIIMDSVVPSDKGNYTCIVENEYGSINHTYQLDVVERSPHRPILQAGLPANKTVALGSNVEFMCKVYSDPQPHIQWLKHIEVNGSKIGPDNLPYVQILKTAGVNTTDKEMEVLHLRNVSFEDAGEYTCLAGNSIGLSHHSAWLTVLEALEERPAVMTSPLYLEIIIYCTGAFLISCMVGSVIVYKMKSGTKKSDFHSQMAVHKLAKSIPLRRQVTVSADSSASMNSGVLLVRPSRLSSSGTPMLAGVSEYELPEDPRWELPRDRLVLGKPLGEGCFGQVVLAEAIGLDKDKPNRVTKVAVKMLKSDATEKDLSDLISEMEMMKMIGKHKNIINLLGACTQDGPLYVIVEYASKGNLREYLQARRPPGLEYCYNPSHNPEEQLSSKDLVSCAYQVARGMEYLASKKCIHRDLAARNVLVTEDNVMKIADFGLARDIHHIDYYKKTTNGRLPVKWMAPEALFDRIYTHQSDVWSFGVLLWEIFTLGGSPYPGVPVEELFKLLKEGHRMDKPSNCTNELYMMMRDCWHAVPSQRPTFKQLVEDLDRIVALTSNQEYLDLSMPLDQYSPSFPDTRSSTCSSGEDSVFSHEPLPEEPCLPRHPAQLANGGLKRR
EPHB1, sequence (P54762 whole entry, looked up): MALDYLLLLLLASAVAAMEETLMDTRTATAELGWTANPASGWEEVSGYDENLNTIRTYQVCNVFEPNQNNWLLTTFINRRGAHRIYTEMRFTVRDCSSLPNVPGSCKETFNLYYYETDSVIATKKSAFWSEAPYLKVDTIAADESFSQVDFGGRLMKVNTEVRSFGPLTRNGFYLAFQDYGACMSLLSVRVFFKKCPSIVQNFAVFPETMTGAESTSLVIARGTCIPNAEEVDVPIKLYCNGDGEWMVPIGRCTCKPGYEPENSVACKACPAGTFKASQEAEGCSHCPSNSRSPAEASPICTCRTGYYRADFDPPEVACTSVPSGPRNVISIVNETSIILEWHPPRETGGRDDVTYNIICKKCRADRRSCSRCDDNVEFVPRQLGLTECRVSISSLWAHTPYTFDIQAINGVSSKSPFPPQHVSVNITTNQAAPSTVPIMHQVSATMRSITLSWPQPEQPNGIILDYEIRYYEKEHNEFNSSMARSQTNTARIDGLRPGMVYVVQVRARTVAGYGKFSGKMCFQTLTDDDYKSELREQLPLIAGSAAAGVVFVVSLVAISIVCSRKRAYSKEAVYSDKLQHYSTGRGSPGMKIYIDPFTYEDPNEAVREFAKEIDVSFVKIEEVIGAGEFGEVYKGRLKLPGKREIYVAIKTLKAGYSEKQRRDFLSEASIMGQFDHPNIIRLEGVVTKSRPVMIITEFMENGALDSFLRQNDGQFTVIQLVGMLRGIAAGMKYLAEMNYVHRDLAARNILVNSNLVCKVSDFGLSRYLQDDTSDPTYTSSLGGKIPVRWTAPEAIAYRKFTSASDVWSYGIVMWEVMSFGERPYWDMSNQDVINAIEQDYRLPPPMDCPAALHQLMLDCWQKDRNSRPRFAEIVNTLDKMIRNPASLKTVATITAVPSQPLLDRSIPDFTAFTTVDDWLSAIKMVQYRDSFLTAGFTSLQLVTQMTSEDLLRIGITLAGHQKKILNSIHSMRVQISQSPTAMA

Row | Sequence | SH2 binding enrichment [14] | SH2 binding enrichment [15] | SH2 binding enrichment [16] | phosphorylation enrichment [1] | phosphorylation enrichment [2] | phosphorylation enrichment [3] | phosphorylation enrichment [4] | phosphorylation enrichment [5] | phosphorylation enrichment [6] | phosphorylation enrichment [7] | phosphorylation enrichment [8] | phosphorylation enrichment [9] | phosphorylation enrichment [10] | phosphorylation enrichment [11] | phosphorylation enrichment [12] | phosphorylation enrichment [13]
1 | RNVFFYSFLLK [PTEN_Y178_Y174N_YF] | 0.907 | 1.02 | 1.22 | 1.72 | 0.757 | 1.23 | 1.31 | 0.738 | 0.861 | 0.656 | 0.586 | 0.565 | 1.59 | 0.697 | 1.29 | 0.508
2 | RPYSPYIIRGM [LRP5_Y1531_R1529S] | 1.08 | 0.953 | 1.16 | 0.816 | 0.438 | 0.681 | 0.509 | 0.575 | 0.59 | 0.848 | 0.399 | 0.642 | 0.508 | 1.75 | 0.886 | 1.07
3 | RQQEDYLLFKQ [RARRES1_Y159_YF] | 0.571 | 0.838 | 0.892 | 1.85 | 0.516 | 0.924 | 1.28 | 0.978 | 1.11 | 0.68 | 1.45 | 1.16 | 1.39 | 0.637 | 1.57 | 0.576
4 | RQQQDYWLIDV [ANPEP_Y600] | 0.586 | 0.913 | 1.07 | 1.6 | 4.02 | 1.32 | 17.4 | 4.64 | 8.95 | 0.847 | 20.6 | 0.625 | 2.43 | 3.21 | 3.3 | 1.47
5 | RRERLYGGGGG [FUS_Y526_P525L] | 0.402 | 0.404 | 0.657 | 1.14 | 0.561 | 0.39 | 0.545 | 0.398 | 0.677 | 0.535 | 0.546 | 0.365 | 0.528 | 0.499 | 0.701 | 0.878
6 | RRNEEYCLLDS [ITK_Y198] | 0.836 | 0.54 | 0.75 | 1.64 | 1.26 | 0.821 | 1.12 | 1.06 | 1 | 1.7 | 1.15 | 1.1 | 1.57 | 0.967 | 2.25 | 0.805
7 | RRVLVYGDRGA [QDPR_Y16_G18D] | 0.442 | 0.529 | 0.838 | 0.539 | 0.48 | 0.445 | 0.549 | 0.322 | 0.34 | 0.542 | 0.413 | 0.525 | 0.485 | 0.424 | 0.585 | 0.573
8 | RRYVYYYSYLL [PTEN_Y177] | 0.474 | 0.65 | 0.631 | 0.768 | 3.68 | 1.39 | 1.11 | 0.829 | 0.672 | 0.771 | 1.88 | 0.764 | 0.986 | 0.518 | 0.814 | 0.79
9 | RSRRSYSCQVM [IGLL1_Y192] | 0.565 | 0.565 | 0.473 | 0.862 | 0.9 | 0.797 | 0.832 | 0.802 | 0.616 | 0.808 | 0.586 | 0.64 | 0.774 | 0.639 | 0.754 | 0.924
10 | RTMPDYTSFNT [EPHB2_Y912_I909M] | 0.521 | 0.463 | 0.935 | 0.947 | 0.459 | 0.618 | 1 | 0.961 | 0.724 | 1.07 | 1.05 | 0.591 | 0.692 | 0.705 | 1.38 | 1.31
11 | RTTKTYFPHFD [HBA1_Y43_P38R] | 1.23 | 1.18 | 1.28 | 0.86 | 0.87 | 0.884 | 1.17 | 0.527 | 1.1 | 0.418 | 0.914 | 0.569 | 2.09 | 0.458 | 0.967 | 1.24
12 | RVDRDYVLKSA [HTATIP2_Y111] | 0.418 | 0.653 | 0.976 | 0.872 | 0.857 | 0.709 | 0.585 | 0.442 | 0.487 | 0.47 | 0.627 | 0.772 | 0.75 | 0.665 | 1.08 | 0.961
13 | RVLHNYLVWRV [ECEL1_Y400] | 1.73 | 1.79 | 1.74 | 1.93 | 0.79 | 0.762 | 1.7 | 1.12 | 1.6 | 0.867 | 1.4 | 1.01 | 1.07 | 1.12 | 2.51 | 0.526
14 | RVQQIYSDSDL [MIB1_Y376] | 0.541 | 0.962 | 0.842 | 1.32 | 4.58 | 1.31 | 0.852 | 0.837 | 1.45 | 4.75 | 0.574 | 3.68 | 0.902 | 3.92 | 1.32 | 5.32
15 | SAVTGYRVDVI [FN1_Y937] | 0.452 | 0.514 | 0.84 | 0.566 | 0.358 | 0.432 | 0.534 | 0.377 | 0.368 | 0.425 | 0.398 | 0.374 | 0.616 | 0.335 | 0.546 | 0.353
16 | SDLTDYLMKIL [ACTA1_Y190_R185S] | 0.608 | 0.903 | 1.16 | 1.22 | 0.445 | 0.789 | 0.732 | 0.648 | 0.578 | 0.535 | 0.532 | 0.571 | 1.1 | 0.582 | 1.14 | 0.507
17 | SELVRYDARVH [MET_Y971] | 0.486 | 0.737 | 0.862 | 0.739 | 0.443 | 0.523 | 0.627 | 0.494 | 0.388 | 0.456 | 0.479 | 0.581 | 0.687 | 0.442 | 0.595 | 0.433
18 | SFMVRYNQPRV [GRIN2D_Y736_YF] | 0.894 | 0.959 | 1.1 | 0.954 | 0.389 | 0.582 | 0.57 | 0.698 | 0.557 | 0.446 | 0.473 | 0.505 | 0.685 | 0.423 | 0.832 | 0.398
19 | SFPREYGSQEG [RBM10_Y48_YF] | 0.467 | 0.681 | 0.9 | 0.755 | 0.48 | 0.461 | 0.567 | 0.447 | 0.392 | 0.506 | 0.491 | 0.565 | 0.532 | 0.387 | 0.715 | 0.475
20 | SFPSYYTSHVQ [NEFL_Y443] | 0.877 | 1.2 | 1.18 | 0.914 | 5.38 | 1.85 | 1.76 | 1.1 | 1.88 | 0.59 | 1.86 | 1.1 | 4.39 | 0.759 | 0.88 | 0.737
21 | SGGSSYGSGGC [KRT1_Y532_G537C] | 0.538 | 0.536 | 0.756 | 0.932 | 0.431 | 0.697 | 0.667 | 0.596 | 0.558 | 0.465 | 0.589 | 0.493 | 0.677 | 0.53 | 0.681 | 0.502
22 | SGSIHYSCVPR [GLB1_Y57_R59C] | 0.569 | 0.747 | 0.734 | 1.15 | 0.517 | 0.898 | 0.771 | 0.585 | 0.591 | 0.474 | 0.536 | 0.54 | 1.06 | 0.578 | 1.05 | 0.526
23 | SHGKRYRVPSD [HHIPL2_Y395] | 0.557 | 0.592 | 0.887 | 0.413 | 0.374 | 0.337 | 0.366 | 0.274 | 0.254 | 0.395 | 0.301 | 0.274 | 0.314 | 0.285 | 0.379 | 0.352

Further lines, with some results ahead:

Row | SH2 binding enrichment [14] | SH2 binding enrichment [15] | SH2 binding enrichment [16] | Sequence | phosphorylation enrichment [1] | phosphorylation enrichment [2] | phosphorylation enrichment [3] | phosphorylation enrichment [4] | phosphorylation enrichment [5] | phosphorylation enrichment [6] | phosphorylation enrichment [7] | phosphorylation enrichment [8] | phosphorylation enrichment [9] | phosphorylation enrichment [10] | phosphorylation enrichment [11] | phosphorylation enrichment [12] | phosphorylation enrichment [13]
24 | 0.533 | 0.512 | 0.835 | RNYGTYTAGLS [RHBDD1_Y264_D262G] | 0.748 | 0.55 | 0.629 | 0.533 | 3.23 | 0.804 | 2.18 | 0.546 | 2.76 | 0.74 | 0.519 | 0.781 | 1.94
25 | 0.415 | 0.764 | 0.97 | RRGMPYGGHGD [TGM1_Y312_R315H] | 0.653 | 0.465 | 0.357 | 0.472 | 0.624 | 0.414 | 0.706 | 0.758 | 0.52 | 0.377 | 0.582 | 0.572 | 0.434
26 | 0.587 | 0.819 | 0.806 | SEELHYFVQNH [UQCRC2_Y207] | 1.16 | 0.841 | 1.07 | 1.39 | 0.661 | 0.647 | 0.523 | 1.12 | 0.524 | 1.08 | 0.562 | 1.45 | 0.685
27 | 0.563 | 1.02 | 0.902 | SEVVPYEPPEV [TP53_Y220_V216E] | 1.33 | 0.473 | 0.784 | 0.81 | 0.621 | 0.604 | 0.583 | 0.601 | 0.582 | 1.16 | 0.585 | 1.28 | 0.529
28 | 0.4 | 0.483 | 0.669 | SFCFRYRCAAR [SUMF1_Y344_YF] | 0.634 | 0.614 | 0.763 | 0.54 | 0.571 | 0.466 | 0.49 | 0.47 | 0.469 | 0.643 | 0.472 | 0.772 | 0.618
29 | 0.409 | 0.728 | 0.885 | SFSGEYGSGGG [ZG16_Y30_G32S_YF] | 0.658 | 0.327 | 0.564 | 0.432 | 0.454 | 0.34 | 0.43 | 0.423 | 0.496 | 0.563 | 0.46 | 0.556 | 0.512
30 | 0.532 | 0.712 | 1.02 | SGEKPYKCSVC [ZNF543_Y283_E287V] | 0.524 | 0.416 | 0.493 | 0.355 | 0.298 | 0.261 | 0.373 | 0.342 | 0.255 | 0.434 | 0.398 | 0.495 | 0.365
31 | 0.49 | 0.77 | 0.814 | SGVVPYEPPEV [TP53_Y220_V216G] | 1.21 | 0.443 | 0.659 | 0.781 | 0.738 | 0.581 | 0.667 | 0.588 | 0.524 | 0.986 | 0.572 | 1.12 | 0.481
32 | 1.4 | 0.922 | 0.726 | SHNELYYEAAE [VANGL1_Y344_E347A] | 1.12 | 1.9 | 0.801 | 2.54 | 0.737 | 1 | 0.986 | 2.63 | 1.1 | 1.18 | 3.52 | 1.6 | 1.17
33 | 0.97 | 0.748 | 1.19 | SHTPSYCDEWL [RITA1_Y109_S113W] | 1.12 | 0.553 | 0.985 | 0.779 | 0.558 | 0.645 | 0.473 | 0.529 | 0.505 | 0.97 | 0.57 | 1.17 | 0.494
